# Results reported in publication PMC5790001.
# Molecular target: CCR5 (human (endogenous in PM1 cells and MDM)) (UniProt P51681)
row,Substance,"IC50 of HIV-1BaL inhibition, acute infection assay, protein from total chemical synthesis; blocks HIV-1 entry through CCR5 [pM]"
1,CCL5 6p4 5 m (total chemical synthesis) (from UniProt P13501 24-91) (ligand),3.9
2,CCL5 5p12 5 m (total chemical synthesis) (from UniProt P13501 24-91) (ligand),3.9

# Molecular target: human CCR5 on CHO-CD4-CCR5 cells (human) (UniProt P51681)
row,Substance,"percent of surface CCR5 internalized, flow cytometry (mAb 3A9) of CHO-CD4-CCR5 cells treated with 100 nM ligand, 4 h, 37 °C [%]"
1,wt CCL5 (E. coli) (from UniProt P13501 24-91) (ligand),55
2,CCL5 6p4 5 m (E. coli) (from UniProt P13501 24-91) (ligand),70

# Molecular target: CCR5 (human (endogenous in PM1 cells and MDM)) (UniProt P51681)
# Remark: another data set of the same source
row,Substance,other [pM]
1,C1C5 Y27W/F28W/E66S (from UniProt P13501 24-91) (ligand),640
2,6p4-RANTES (L. jensenii) (from UniProt P13501 24-91) (ligand),30
3,CCL5 F12W (from UniProt P13501 24-91) (ligand),> 6500
4,CCL5 A13V (from UniProt P13501 24-91) (ligand),86
5,6p4 F12Y/A13V/Y27W/F28W/E66S (CCL5 6p4 5 m) (L. jensenii) (from UniProt P13501 24-91) (ligand),4.7
6,CCL5 Y27W/F28W/E66S (from UniProt P13501 24-91) (ligand),46
7,C1C5 E66S (from UniProt P13501 24-91) (ligand),1600
8,CCL5 A13F (from UniProt P13501 24-91) (ligand),92
9,CCL5 A13W (from UniProt P13501 24-91) (ligand),169
10,CCL5 F12Y/A13V (from UniProt P13501 24-91) (ligand),179
11,CCL5 Y27W (from UniProt P13501 24-91) (ligand),255
12,5p12 E66S (from UniProt P13501 24-91) (ligand),18
13,CCL5 A13M (from UniProt P13501 24-91) (ligand),256
14,CCL5 F12Y/A13V/Y27W/F28W (CCL5 4 m) (from UniProt P13501 24-91) (ligand),115
15,CCL5 A13P (from UniProt P13501 24-91) (ligand),> 1000
16,5p12 Y27W (from UniProt P13501 24-91) (ligand),17
17,CCL5 F28W (from UniProt P13501 24-91) (ligand),162
18,CCL5 Y27W/F28W (from UniProt P13501 24-91) (ligand),95

# Further lines, results first:
row,other [pM],Substance
1,> 1000,CCL5 F12P (from UniProt P13501 24-91) (ligand)
2,30,5p12 F12Y/A13V (from UniProt P13501 24-91) (ligand)
3,190,CCL5 E66S (from UniProt P13501 24-91) (ligand)
4,5.5,5p12 F12Y/A13V/Y27W/F28W/E66S (CCL5 5p12 5 m) (L. jensenii) (from UniProt P13501 24-91) (ligand)
5,78,CCL5 A13Y (from UniProt P13501 24-91) (ligand)
6,833,C1C5 27W/28 W (from UniProt P13501 24-91) (ligand)
7,7.7,5p12 Y27W/F28W/E66S (from UniProt P13501 24-91) (ligand)
8,34,CCL5 F12Y/A13V/Y27W/F28W/E66S (CCL5 5 m) (L. jensenii) (from UniProt P13501 24-91) (ligand)
9,3700,C1C5 Y27W (from UniProt P13501 24-91) (ligand)
10,8.2,5p12 Y27W/F28W (from UniProt P13501 24-91) (ligand)

# Molecular target: CCR5 (human (endogenous in PM1 cells and MDM)) (UniProt P51681)
# Remark: another data set of the same source
other [pM],Substance,"IC50 (pM) of HIV-1BaL inhibition, acute infection assay in PM1 cells (p24), protein purified from E. coli; blocks HIV-1 entry through CCR5 [pM]"
,wt CCL5 (E. coli) (from UniProt P13501 24-91) (ligand),810
21,5p12-RANTES (E. coli) (from UniProt P13501 24-91) (ligand),
35,6p4-RANTES (E. coli) (from UniProt P13501 24-91) (ligand),
7.9,CCL5 6p4 5 m (E. coli) (from UniProt P13501 24-91) (ligand),

Substance,other [pM],"IC50 (pM) of HIV-1BaL inhibition, acute infection assay in PM1 cells (p24), protein purified from E. coli; blocks HIV-1 entry through CCR5 [pM]"
CCL5 5p12 5 m (E. coli) (from UniProt P13501 24-91) (ligand),6.1,

# Molecular target: CCR5 (human (endogenous in PM1 cells and MDM)) (UniProt P51681)
# Remark: another data set of the same source
Substance,IC50 of inhibition of HIV-1BaL infection in human monocyte-derived macrophages (MDM); blocks HIV-1 entry through CCR5 [pM],"IC50 of inhibition of the primary R5 HIV-1 strain 98IN007 (clade C), acute infection assay in PM1 cells; blocks HIV-1 entry through CCR5 [pM]","IC50 of inhibition of the primary R5 HIV-1 strain 5513 (clade B), acute infection assay in PM1 cells; blocks HIV-1 entry through CCR5 [pM]"
CCL5 5p12 5 m (E. coli) (from UniProt P13501 24-91) (ligand),14.2,7.6,15.5
